This is an account of results in patent EP4813396A2 (Amphivena Therapeutics, Inc., dated 2026).

Changes are numbered by the printed parent chain. “And” between values parts separate entries of the source, which are not always exact repeats. Equal values may be shown once.

To fix the notation:
B1: CD33/CD3 tandem diabody 05 (bispecific antibody)
chain: DIQMTQSPSSLSASVGDRVTITCRSSTGAVTTSNYANWVQQKPGKAPKGLIGGTNKRAPGVPARFSGSGSGTDFTLTISSLQPEDFATYYCALWYSNLWVFGQGTKVEIKGGSGGSQVQLVQSGAEVKKPGASVKVSCKASGYTFTSYDINWVRQAPGQGLEWMGWMNPNSGNTGFAQKFQGRVTMTRDTSTSTVYMELSSLRSEDTAVYYCARDRANTDYSFGMDVWGQGTLVTVSSGGSGGQSVLTQPPSASGTPGQRVTISCSGSRSNIGSNTVNWYQQLPGTAPKLLIYGNNQRPSGVPDRFSGSKSGTSASLAISGLQSEDEADYYCATWDDSLIGWVFGGGTKLTVLGGSGGSEVQLVESGGGLVQPGGSLRLSCAASGFTFSTYAMNWVRQAPGKGLEWVGRIRSKYNNYATYYADSVKDRFTISRDDSKNSLYLQMNSLKTEDTAVYYCARHGNFGNSYVSWFAYWGQGTLVTVSSAAAGSHHHHHH
notes: Non-covalent homodimer; domain order 1; also called TandAb 05; tandem diabody 5
B2: CD33/CD3 tandem diabody 06 (bispecific antibody)
chain: B1 chain with F223L
notes: Non-covalent homodimer; domain order 1; also called TandAb 06; tandem diabody 6
B3: CD33/CD3 tandem diabody 13 (bispecific antibody)
chain: DIQMTQSPSSLSASVGDRVTITCRSSTGAVTTSNYANWVQQKPGKAPKGLIGGTNKRAPGVPSRFSGSLIGTDFTLTISSLQPEDFATYYCALWYSNLWVFGQGTKVEIKGGSGGSQVQLVQSGAEVKKPGASVKVSCKASGYTFTSYDINWVRQAPGQGLEWMGWMNPNSGNTGFAQKFQGRVTMTRDTSTSTVYMELSSLRSEDTAVYYCARDRAVTDYYYGMDVWGQGTLVTVSSGGSGQSVLTQPPSASGTPGQRVTISCSGSRSNIGSNTVNWYQQLPGTAPKLLIYGNNQRPSGVPDRFSGSKSGTSASLAISGLQSEDEADYYCATWDDSLIGWVFGGGTKLTVLGGSGGSEVQLVESGGGLVQPGGSLRLSCAASGFTFSTYAMNWVRQAPGKGLEWVGRIRSKYNNYATYYADSVKDRFTISRDDSKNSLYLQMNSLKTEDTAVYYCARHGNFGNSYVSWFAYWGQGTLVTVSS
notes: Non-covalent homodimer; domain order 1; also called TandAb 13
B4: CD33/CD3 tandem diabody 07 (bispecific antibody)
chain: DIQMTQSPSSLSASVGDRVTITCRSSTGAVTTSNYANWVQQKPGKAPKALIGGTNKRAPGVPSRFSGSLIGDKATLTISSLQPEDFATYYCALWYSNLWVFGQGTKVEIKGGSGGSQVQLQESGGGVVQPGRSLRLSCAASGFSFSNYGIHWVRQAPGKGLEWVALISYDGNKKFYADSVKGRFAISRDTSKNTVDLQMTSLRPEDTAVYYCAKDRLESAAFDYWGQGTLVTVSSGGSGGSSYELTQPPSVSVAPGQTAMITCGGNNIGSTTVHWYQQKPGQAPVLVVYDDNERPSGIPERFSGSNSGSTATLTINRVEAGDEADYYCQVWDSGSDHVVFGGGTKLTVLGGSGGSEVQLVESGGGLVQPGGSLRLSCAASGFTFSTYAMNWVRQAPGKGLEWVGRIRSKYNNYATYYADSVKDRFTISRDDSKNSLYLQMNSLKTEDTAVYYCARHGNFGNSYVSYFAYWGQGTLVTVSSAAAGSHHHHHH
notes: Non-covalent homodimer; domain order 1; also called TandAb 07; tandem diabody 7
B5: CD33/CD3 tandem diabody 14 (bispecific antibody)
chain: DIQMTQSPSSLSASVGDRVTITCRSSTGAVTTSNYANWVQQKPGKAPKALIGGTNKRAPGVPSRFSGSLIGDKATLTISSLQPEDFATYYCALWYSNLWVFGQGTKVEIKGGSGGSQVQLVQSGAEVKKPGASVKVSCKASGYTFTSYDINWVRQAPGQGLEWMGWMNPNSGNTGFAQKFQGRVTMTRDTSTSTVYMELSSLRSEDTAVYYCARDRANTDFSYGMDVWGQGTLVTVSSGGSGQSVLTQPPSASGTPGQRVTISCSGSRSNIGSNTVNWYQQLPGTAPKLLIYGNNQRPSGVPDRFSGSKSGSSASLAISGLQSEDEADYYCATWDDSLIGWVFGGGTKLTVLGGSGGSEVQLVESGGGLVQPGGSLRLSCAASGFTFSTYAMNWVRQAPGKGLEWVGRIRSKYNNYATYYADSVKDRFTISRDDSKNSLYLQMNSLKTEDTAVYYCARHGNFGNSYVSYFAYWGQGTLVTVSSAAAGSHHHHHH
notes: Non-covalent homodimer; domain order 1; also called TandAb 14
B6: CD33/CD3 tandem diabody 17 (bispecific antibody)
chain: DIQMTQSPSSLSASVGDRVTITCRSSTGAVTTSNYANWVQQKPGKAPKALIGGTNKRAPGVPSRFSGSLIGDKATLTISSLQPEDFATYYCALWYSNLWVFGQGTKVEIKGGSGGSQVQLVQSGAEVKKPGESLKISCKGSGYSFTSYWIGWVRQMPGKGLEWMGIIYPGDSDTRYSPSFQGQVTISADKSISTAYLQWSSLKASDTAMYYCARHKRGSDAFDIWGQGTTVTVSSGGSGQSVLTQPPSVSGAPGQRVTISCTGSSSNIGAGYDVHWYQQLPGTAPKLLIYGNSNRPSGVPDRFSGSKSGTSASLAITGLQAEDEADYYCQSYDSSLSDVVFGGGTKLTVLGGSGGSEVQLVESGGGLVQPGGSLRLSCAASGFTFSTYAMNWVRQAPGKGLEWVGRIRSKYNNYATYYADSVKDRFTISRDDSKNSLYLQMNSLKTEDTAVYYCARHGNFGNSYVSYFAYWGQGTLVTVSSAAAGSHHHHHH
notes: Non-covalent homodimer; domain order 1; also called TandAb 17
B7: CD33/CD3 tandem diabody 23 (bispecific antibody)
chain: DIQMTQSPSSLSASVGDRVTITCRSSTGAVTTSNYANWVQQKPGKAPKGLIGGTNKRAPGVPSRFSGSLIGTDFTLTISSLQPEDFATYYCALWYSNLWVFGQGTKVEIKGGSGGSQVQLVQSGAEVKKPGSSVKVSCKASGGTFSSYGISWVRQAPGQGLEWMGGIIPIFGSAHYAQKFQGRVTITADESTSTAYMELSSLRSEDTAVYYCAREYYYDSSEWAFDIWGQGTLVTVSSGGSGQSVLTQPPSASGTPGQRVTISCSGSSSNIGSNTVKWYQQLPGTAPKLLIYSNNQRSSGVPDRFSGSKSGSSASLAISGLQSEDEADYYCAAWDDSLNGYVFGGGTKLTVLGGSGGSEVQLVESGGGLVQPGGSLRLSCAASGFTFSTYAMNWVRQAPGKGLEWVGRIRSKYNNYATYYADSVKDRFTISRDDSKNSLYLQMNSLKTEDTAVYYCARHGNFGNSYVSWFAYWGQGTLVTVSS
notes: Non-covalent homodimer; domain order 1; also called TandAb 23

T1 sequence (P20138 18-364): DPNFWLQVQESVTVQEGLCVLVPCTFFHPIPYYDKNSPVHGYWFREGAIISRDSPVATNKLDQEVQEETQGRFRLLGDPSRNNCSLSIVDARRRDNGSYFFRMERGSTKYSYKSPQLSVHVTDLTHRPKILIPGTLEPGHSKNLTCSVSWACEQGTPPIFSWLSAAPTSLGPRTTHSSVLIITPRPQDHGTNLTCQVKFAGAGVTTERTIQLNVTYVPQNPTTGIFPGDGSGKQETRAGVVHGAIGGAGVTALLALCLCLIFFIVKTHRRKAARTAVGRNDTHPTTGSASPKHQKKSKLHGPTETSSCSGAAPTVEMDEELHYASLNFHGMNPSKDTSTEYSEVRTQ
T2 sequence (P07766 23-207): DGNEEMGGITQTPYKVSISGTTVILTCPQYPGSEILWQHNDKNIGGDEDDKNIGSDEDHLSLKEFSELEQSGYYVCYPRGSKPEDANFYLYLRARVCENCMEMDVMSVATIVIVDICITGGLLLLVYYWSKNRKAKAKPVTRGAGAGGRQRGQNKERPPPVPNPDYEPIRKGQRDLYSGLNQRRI

The first assay has as its target T1, human CD33 on cells (human, UniProt P20138 18-364).
T1 construct: whole, on cells; also called huCD33
As to the kind of experiment: flow cytometry, titration on KG-1 cells. For orientation: Flow cytometry measures light scatter and fluorescence of single cells or particles in a stream.
The term Kd denotes the constant that tells how readily two partners part at equilibrium. A lower Kd goes with a tighter complex. Regarding B1, binding was put at a Kd of 1.2 nM.

Molecule B2 yielded a Kd of 0.5 nM.

As to B3, binding was characterised by a dissociation constant (Kd) of 0.3 nM.

For the molecule B4, binding was put at a Kd of 47.9 nM.

B5 returned a Kd of 0.3 nM.

Molecule B6 came in with a Kd of 52.5 nM.

Consider B7, for which the Kd worked out at 1 nM.

The target of another assay is T1, human CD33 on cells. As to the kind of experiment: flow cytometry, titration on U-937 cells.
Turning to B1, binding was put at a Kd of 6.2 nM.

For B2, binding was characterised by a dissociation constant (Kd) of 1.6 nM.

Molecule B3 gave a Kd of 0.5 nM.

As to B4, binding was put at a Kd of 47.1 nM.

B5 yielded a Kd of 1.2 nM.

Molecule B6 registered a Kd of 24.4 nM.

The molecule B7 yielded a Kd of 5.1 nM.

Another assay addresses T1, human CD33 on cells. As to the kind of experiment: cell-based or functional assay.
B1: the “EC50 on HL-60 [pM] (cytotoxicity)” value is 2.7 pM.

Consider B2, for which the “EC50 on HL-60 [pM] (cytotoxicity)” value came out at 1.6 pM.

B3: the “EC50 on HL-60 [pM] (cytotoxicity)” value was determined as 1.1 pM.

For the molecule B4, the “EC50 on HL-60 [pM] (cytotoxicity)” value stood at 17.8 pM.

Turning to B5, the “EC50 on HL-60 [pM] (cytotoxicity)” value is 1.6 pM.

As to B6, the “EC50 on HL-60 [pM] (cytotoxicity)” value came out at 18.4 pM.

Take B7: the “EC50 on HL-60 [pM] (cytotoxicity)” value was 2.8 pM.

The next assay addresses T1, human CD33 on cells. The experiment in a line: cell-based or functional assay. This is another data set of the same source.
Take B5: the “EC50 [pM (pg/mL)] on human CD33+ target cell lines: HL-60 (cytotoxicity, E:T 5:1, 20-24 h)” value was 1.6 pM and 168 pg/mL; the “EC50 [pM (pg/mL)] on human CD33+ target cell lines: KG-1 (cytotoxicity, E:T 5:1, 20-24 h)” value was 2.6 pM and 273 pg/mL; the “EC50 [pM (pg/mL)] on human CD33+ target cell lines: U-937 (cytotoxicity, E:T 5:1, 20-24 h)” value was 3.6 pM and 378 pg/mL; the “EC50 [pM (pg/mL)] on human CD33+ target cell lines: mean of HL-60, U-937, KG-1” value is 2.6 pM and 273 pg/mL.

In a further assay the target is T1, human CD33 on cells. As to the kind of experiment: flow cytometry, titration on HL-60 cells.
As to B1, the affinity, expressed as Kd, was 1 nM.

Regarding B2, binding was put at a Kd of 0.4 nM.

B3 yielded a Kd of 0.2 nM.

Regarding B4, the Kd came to 13.7 nM.

B5 showed a Kd of 0.3 nM.

The molecule B6 displayed a Kd of 5 nM.

B7 came in with a Kd of 0.4 nM.

The next assay concerns the target T2, human CD3 on T cells (human, UniProt P07766 23-207).
T2 construct: whole, on cells; also called hu CD3; CD3 on Jurkat cells
As to the kind of experiment: flow cytometry, titration on human CD3+ T cells (Jurkat per paragraph 124/paragraph 125).
Take B1: the Kd was 69.5 nM.

Consider B2, for which the Kd worked out at 86.3 nM.

In turn, B3 returned an equilibrium dissociation constant (Kd) of 55.7 nM.

With B4, the Kd came to 49.7 nM.

In turn, B5 showed a Kd of 2.1 nM.

B6 displayed a Kd of 3.3 nM.

For B7, the Kd is 97.2 nM.

For the next assay, the target named is T2, human CD3 on T cells. The experiment in a line: cell-based or functional assay.
Take B1: the “CD25 Induction EC50 (pM)” value stood at 116 pM, the “CD69 Induction EC50 (pM)” value amounted to 74 pM and the “T cell Proliferation in PBMC EC50 (pM)” value was 74 pM.

On to B2, for which the “CD25 Induction EC50 (pM)” value worked out at 39 pM, the “CD69 Induction EC50 (pM)” value turned out to be 21 pM and the “T cell Proliferation in PBMC EC50 (pM)” value stood at 48 pM.

Consider B3, for which the “CD25 Induction EC50 (pM)” value came to 30 pM, the “CD69 Induction EC50 (pM)” value is 22 pM and the “T cell Proliferation in PBMC EC50 (pM)” value was 23 pM.

On to B4, for which the “CD25 Induction EC50 (pM)” value is 134 pM, the “CD69 Induction EC50 (pM)” value amounted to 65 pM and the “T cell Proliferation in PBMC EC50 (pM)” value came out at 50 pM.

On to B5, for which the “CD25 Induction EC50 (pM)” value is 10 pM, the “CD69 Induction EC50 (pM)” value was 7 pM and the “T cell Proliferation in PBMC EC50 (pM)” value stood at 6 pM.

For B6, the “CD25 Induction EC50 (pM)” value turned out to be 30 pM, the “CD69 Induction EC50 (pM)” value was determined as 114 pM and the “T cell Proliferation in PBMC EC50 (pM)” value stood at 30 pM.

Take B7: the “CD25 Induction EC50 (pM)” value is 41 pM, the “CD69 Induction EC50 (pM)” value was 17 pM and the “T cell Proliferation in PBMC EC50 (pM)” value turned out to be 37 pM.

A further assay deals with cynomolgus CD33 on CHO cells (cynomolgus monkey). The experiment in a line: flow cytometry; KD on CHO-cynomolgus CD33 cells divided by KD on CHO-human CD33 cells.
For the molecule B1, the KD ratio cynoCD33/ huCD33 is 0.8.

B2: the KD ratio cynoCD33/ huCD33 turned out to be 0.8.

As to B3, the KD ratio cynoCD33/ huCD33 is 1.6.

For B4, the KD ratio cynoCD33/ huCD33 worked out at 45.8.

With B5, the KD ratio cynoCD33/ huCD33 was 1.

Regarding B6, the KD ratio cynoCD33/ huCD33 is 1.9.

For B7, the KD ratio cynoCD33/ huCD33 turned out to be 1.9.

Another assay deals with T2, human CD3 on T cells. The experiment in a line: flow cytometry, human T-cells (as headed in Table 10).
On to B1, for which the Kd turned out to be 69.5 nM.

For the molecule B2, the Kd was found to be 86.3 nM.

As to B3, the Kd was 55.7 nM.

For the molecule B4, the affinity, expressed as Kd, was 49.7 nM.

B5: the affinity, expressed as Kd, was 2.1 nM.

In turn, B6 registered a Kd of 3.3 nM.

Molecule B7 came in with a Kd of 97.2 nM.

The target in a further assay is T1, human CD33 on cells. The experiment in a line: flow cytometry, HL-60 cells.
As for B1, binding was characterised by a dissociation constant (Kd) of 1 nM.

With B2, the dissociation constant Kd stood at 0.4 nM.

For B3, binding was put at a Kd of 0.2 nM.

As to B4, the affinity, expressed as Kd, was 13.7 nM.

The molecule B5 had a Kd of 0.3 nM.

In turn, B6 had a dissociation constant (Kd) of 5 nM.

B7 showed a Kd of 0.4 nM.
